Measurements published in doi:10.1101/2023.06.17.545410 (bioRxiv, 2023).

Target: T1, HsTHUMPD2 (purified) (human, UniProt Q9BTF0-1 1-503)
T1 sequence (looked up): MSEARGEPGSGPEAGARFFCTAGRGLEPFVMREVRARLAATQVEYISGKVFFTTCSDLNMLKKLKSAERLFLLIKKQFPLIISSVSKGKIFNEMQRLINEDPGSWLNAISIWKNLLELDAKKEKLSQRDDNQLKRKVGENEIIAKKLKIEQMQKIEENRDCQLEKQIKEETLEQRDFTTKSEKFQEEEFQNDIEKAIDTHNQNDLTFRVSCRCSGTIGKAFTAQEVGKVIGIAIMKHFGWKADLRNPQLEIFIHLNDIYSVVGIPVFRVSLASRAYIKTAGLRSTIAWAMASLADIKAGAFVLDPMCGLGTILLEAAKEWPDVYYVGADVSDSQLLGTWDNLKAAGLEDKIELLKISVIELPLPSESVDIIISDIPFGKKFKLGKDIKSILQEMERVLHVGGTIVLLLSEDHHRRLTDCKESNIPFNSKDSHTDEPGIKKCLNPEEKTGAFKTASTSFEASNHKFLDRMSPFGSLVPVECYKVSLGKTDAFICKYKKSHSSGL
Test: SEC

- binding result: binds
B1: HsTRMT112 (purified) (natural protein, human, UniProt Q9UI30-1 1-125, looked up)
chain: MKLLTHNLLSSHVRGVGSRGFPLRLQATEVRICPVEFNPNFVARMIPKVEWSAFLEAADNLRLIQVPKGPVEGYEENEEFLRTMHHLLLEVEVIEGTLQCPESGRMFPISRGIPNMLLSEEETES
